Target: Geobacillus kaustophilus ribosomal protein S18 (Geobacillus kaustophilus, UniProt Q5KU71 1-78)
Experiment: native gel or EMSA

binding result: binds
B1: Geobacillus kaustophilus ribosomal protein S6 (natural protein)
chain: MRKYEIMYIIRPNMDDEARQALVERFNNVLKENGAEITNVTDWGKRRLAYEIQKYRDGYYMIVNVVSEPKAVQEFDRLARISEDIIRHIVVKEEE

From publication PMC3895269 (RNA, 2014)
